Tests used:
[1] = Hydrophobicity k′rel by RP-HPLC relative to human insulin; type: physicochemical; conditions: LiChrosorb RP18, isocratic, 40° C., pH 7.3
Description: The elution was monitored by following the UV absorption of the eluate at 214 nm. Void time, t0, was found by injecting 0.1 mM sodium nitrate.

human insulin receptor = human insulin receptor (Homo sapiens, UniProt P06213); test: Insulin receptor binding, SPA antibody capture assay (Assay I); conditions: recombinant human insulin receptor, A14 Tyr[125I]-human insulin
Description: A total of 100 μl was then added and a dilution series is made from appropriate samples. […] The phases were the then separated by centrifugation for 1 min and the plates counted in a Topcounter. The binding data were fitted using the nonlinear regression algorithm in the GraphPad Prism 2.01 (GraphPad Software, San Diego, Calif.).
Specific antibodies (F12) were produced by monoclonal technique: RBF mice were immunized by injecting 50 μg of purified mIR in FCA subcutaneously followed by two injections with 20 μg of mIR in FIA. […] Supernatants were screened for antibody production in a mIR specific ELISA. Positive wells were cloned and tested in Western blotting.

Chain of human insulin receptor (P06213 28-1370 isoform P06213-2 limits assumed): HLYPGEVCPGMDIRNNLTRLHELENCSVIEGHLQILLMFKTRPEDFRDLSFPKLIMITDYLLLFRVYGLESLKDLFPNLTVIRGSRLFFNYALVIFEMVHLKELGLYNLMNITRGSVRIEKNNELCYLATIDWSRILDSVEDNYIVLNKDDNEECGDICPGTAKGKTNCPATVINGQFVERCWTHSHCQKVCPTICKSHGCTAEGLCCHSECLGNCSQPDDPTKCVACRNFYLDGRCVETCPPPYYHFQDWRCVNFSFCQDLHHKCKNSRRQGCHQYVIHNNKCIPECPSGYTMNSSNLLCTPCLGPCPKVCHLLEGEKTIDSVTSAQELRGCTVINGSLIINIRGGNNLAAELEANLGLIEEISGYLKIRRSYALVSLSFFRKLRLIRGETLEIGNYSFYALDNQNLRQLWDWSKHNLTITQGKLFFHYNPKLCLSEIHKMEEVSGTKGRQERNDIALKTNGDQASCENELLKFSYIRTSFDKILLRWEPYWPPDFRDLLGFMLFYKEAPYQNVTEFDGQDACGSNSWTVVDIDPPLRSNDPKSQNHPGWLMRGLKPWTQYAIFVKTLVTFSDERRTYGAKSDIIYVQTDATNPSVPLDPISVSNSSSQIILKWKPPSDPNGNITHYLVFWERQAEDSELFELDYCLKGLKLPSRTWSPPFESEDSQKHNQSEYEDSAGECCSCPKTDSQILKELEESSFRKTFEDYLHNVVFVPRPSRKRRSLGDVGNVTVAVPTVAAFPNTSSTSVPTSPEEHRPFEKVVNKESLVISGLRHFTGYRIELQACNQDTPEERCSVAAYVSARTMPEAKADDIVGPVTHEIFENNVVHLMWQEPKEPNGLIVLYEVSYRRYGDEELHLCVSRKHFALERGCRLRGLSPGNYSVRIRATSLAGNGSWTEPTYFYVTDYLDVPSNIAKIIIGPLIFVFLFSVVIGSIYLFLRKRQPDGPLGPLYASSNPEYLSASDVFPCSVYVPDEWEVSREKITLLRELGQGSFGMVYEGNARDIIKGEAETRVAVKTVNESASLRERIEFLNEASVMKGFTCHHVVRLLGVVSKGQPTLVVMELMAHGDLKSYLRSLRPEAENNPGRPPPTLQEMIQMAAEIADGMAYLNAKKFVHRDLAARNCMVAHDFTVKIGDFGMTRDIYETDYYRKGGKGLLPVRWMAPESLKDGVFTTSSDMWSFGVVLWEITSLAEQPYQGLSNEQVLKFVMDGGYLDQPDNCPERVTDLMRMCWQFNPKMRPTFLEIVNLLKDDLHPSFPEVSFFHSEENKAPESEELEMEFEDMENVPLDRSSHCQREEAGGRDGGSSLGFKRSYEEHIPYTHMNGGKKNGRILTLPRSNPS

| Substance | k′rel (hydrophobic index relative to human insulin) [1] | Receptor binding (% of human insulin) (human insulin receptor) |
| --- | --- | --- |
| N^εB29—(N-(L-Glu-OC(CH2)14CO—) des(B30) Human Insulin | 1.17 | 9.4 % of human insulin |
| N^εB29—(N-(L-Sar-OC(CH2)13CO-γ-L-Glu) des(B30) Human Insulin | 0.63 | 20 % of human insulin |
| N^εB29—(N^α—(HOOC(CH2)16CO)-γ-Glu-N-(γ-Glu)) des(B30) Human Insulin | 1.17 |  |
| N^εB29—(N—(HOOC(CH2)14CO-ε-L-LysCO—) des(B30) Human Insulin | 0.90 | 5.7 % of human insulin |
| N^εB29—[N—(HOOC(CH2)16CO)—N-(carboxymethyl)-β-Ala] des(B30) Human Insulin |  | 9.4 % of human insulin |
| NεB29-(Nα—(HOOC(CH2)16CO)-γ-Glu) des(B30) Human Insulin | 1.15 | 9.2 % of human insulin |
